The record followed here is article PMC4403447, “Hsp90 regulates the dynamics of its cochaperone Sti1 and the transfer of Hsp70 between modules” (Nature Communications, 2015).

Holding throughout (settings): both partners purified
Assay [1] has as its target T1, yHsp70 (Ssa1) (yeast, UniProt P10591 1-642).
T1 construct: Yeast Hsp70 Ssa1, full length; The strain carries a 6xHis-SSA1 gene; The methods speak of cleavage of the His6-SUMO tag or His-tag in general, and it is not clear whether this holds for Ssa1; source: Pichia pastoris KM71H-Ssa1, purified (Hi-Trap, Superdex 200)
As to the kind of experiment: SPR; Hsp70 amine-coupled to a CM5 chip, Sti1 variants as analyte; 40 mM Hepes pH 7.5, 20 mM KCl, 5 mM MgCl2, 0.005% Tween; 10 μl/min; 20 °C; Langmuir isotherm; affinities shown normalized to wild-type Sti1.

For the next assay, the target named is T2, yHsp90 (Hsp82) (yeast, UniProt P02829 1-709).
T2 construct: Yeast Hsp90 Hsp82; source: E. coli BL21 (DE3) Codon Plus, purified (Hi-Trap, Superdex 200); not shown: 6xHis-SUMO or thrombin-cleavable 6xHis, N-terminal, cleaved
As to the kind of experiment: AUC; ternary complexes, fluorescence detection: 0.5 μM fluorescein-labelled yHsp70 and 3 μM yHsp90 with 0.5 to 8 μM Sti1 variant; 10 mM potassium phosphate pH 7.5; 20 °C; 42,000 r.p.m.; dc/dt plots.

The target of assay [2] is T3, fluorescein-labelled yHsp70 (Ssa1) (yeast, UniProt P10591 1-642, 5-(and -6)-carboxyfluorescein covalently coupled (amine-reactive dye); sites not stated).
T3 construct: Yeast Hsp70 Ssa1, full length, labelled with carboxyfluorescein; Same protein as m11, with the fluorescent label used for AUC; also called fluorescently labelled yHsp70; fluorescently labelled Ssa1; source: Pichia pastoris KM71H-Ssa1, purified (Hi-Trap, Superdex 200), then labelled
T3 sequence (P10591 whole entry): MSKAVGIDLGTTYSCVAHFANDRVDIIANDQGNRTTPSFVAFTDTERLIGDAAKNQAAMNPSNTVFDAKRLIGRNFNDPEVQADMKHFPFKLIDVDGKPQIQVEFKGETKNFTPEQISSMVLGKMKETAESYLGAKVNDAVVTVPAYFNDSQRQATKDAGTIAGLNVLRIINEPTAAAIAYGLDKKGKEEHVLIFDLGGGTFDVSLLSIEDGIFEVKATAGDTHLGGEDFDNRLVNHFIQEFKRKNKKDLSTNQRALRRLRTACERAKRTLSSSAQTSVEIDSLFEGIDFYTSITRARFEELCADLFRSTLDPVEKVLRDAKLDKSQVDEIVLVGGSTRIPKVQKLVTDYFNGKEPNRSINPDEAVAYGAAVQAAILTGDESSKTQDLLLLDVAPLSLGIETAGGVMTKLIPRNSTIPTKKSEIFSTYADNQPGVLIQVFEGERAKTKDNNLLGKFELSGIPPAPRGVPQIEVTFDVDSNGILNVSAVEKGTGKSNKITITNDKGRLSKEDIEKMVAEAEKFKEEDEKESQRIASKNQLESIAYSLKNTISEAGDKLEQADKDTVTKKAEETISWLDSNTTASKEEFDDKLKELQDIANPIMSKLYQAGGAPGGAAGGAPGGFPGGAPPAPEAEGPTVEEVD
The assay is described as above.

Assay [3] has as its target T1, yHsp70 (Ssa1). Description: SAXS; mixtures of a Sti1 variant and Hsp70 at 1:1 and 1:2; solute 1 to 10 mg/ml; in-house SAXSess mc2; masses from I(0).

Substitutions are numbered along the chain they refer to.

T1 sequence (P10591 whole entry): as above

B1: Sti1 TPR2A–TPR2B (domain or fragment, S. cerevisiae)
chain: ADKEKAEGNKFYKARQFDEAIEHYNKAWELHKDITYLNNRAAAEYEKGEYETAISTLNDAVEQGREMRADYKVISKSFARIGNAYHKLGDLKKTIEYYQKSLTEHRTADILTKLRNAEKELKKAEAEAYVNPEKAEEARLEGKEYFTKSDWPNAVKAYTEMIKRAPEDARGYSNRAAALAKLMSFPEAIADCNKAIEKDPNFVRAYIRKATAQIAVKEYASALETLDAARTKDAEVNNGSSAREIDQLYYKASQ
notes: TPR2A-TPR2B segment of Sti1; also called TPR2A–TPR2B fragment; TPR1-lacking construct; source: E. coli BL21 (DE3) Codon Plus, purified (Hi-Trap, Superdex 200); not shown: 6xHis-SUMO or thrombin-cleavable 6xHis, N-terminal, cleaved
On to B1, for which the binding result (with yHsp70 (Ssa1) [1]; with yHsp90 (Hsp82); in assay [2]) was “binds” each time.

B2: Sti1 (stress-inducible protein 1), wild type (natural protein, S. cerevisiae, UniProt P15705 1-589, looked up)
chain: MSLTADEYKQQGNAAFTAKDYDKAIELFTKAIEVSETPNHVLYSNRSACYTSLKKFSDALNDANECVKINPSWSKGYNRLGAAHLGLGDLDEAESNYKKALELDASNKAAKEGLDQVHRTQQARQAQPDLGLTQLFADPNLIENLKKNPKTSEMMKDPQLVAKLIGYKQNPQAIGQDLFTDPRLMTIMATLMGVDLNMDDINQSNSMPKEPETSKSTEQKKDAEPQSDSTTSKENSSKAPQKEESKESEPMEVDEDDSKIEADKEKAEGNKFYKARQFDEAIEHYNKAWELHKDITYLNNRAAAEYEKGEYETAISTLNDAVEQGREMRADYKVISKSFARIGNAYHKLGDLKKTIEYYQKSLTEHRTADILTKLRNAEKELKKAEAEAYVNPEKAEEARLEGKEYFTKSDWPNAVKAYTEMIKRAPEDARGYSNRAAALAKLMSFPEAIADCNKAIEKDPNFVRAYIRKATAQIAVKEYASALETLDAARTKDAEVNNGSSAREIDQLYYKASQQRFQPGTSNETPEETYQRAMKDPEVAAIMQDPVMQSILQQAQQNPAALQEHMKNPEVFKKIQTLIAAGIIRTGR
notes: Sti1, yeast cochaperone of Hsp70 and Hsp90, full length; also called wild-type Sti1; full-length Sti1; source: E. coli BL21 (DE3) Codon Plus, purified (Hi-Trap, Superdex 200); not shown: 6xHis-SUMO or thrombin-cleavable 6xHis, N-terminal, cleaved
In general, stoichiometry N refers to the number of molecules, sites or subunits per partner or assembly. With B2, the “stoichiometry N” value with yHsp70 (Ssa1) [3] was 1.

B3: Sti1 R469A (natural protein, S. cerevisiae, UniProt P15705 1-589, looked up)
chain: B2 chain with R469A
notes: source: E. coli BL21 (DE3) Codon Plus, purified (Hi-Trap, Superdex 200); not shown: 6xHis-SUMO or thrombin-cleavable 6xHis, N-terminal, cleaved
For B3, the binding result with yHsp70 (Ssa1) [1] was “binds”.

B4: Sti1 N39A (natural protein, S. cerevisiae, UniProt P15705 1-589, looked up)
chain: B2 chain with N39A
notes: also called TPR1-defective construct; source: E. coli BL21 (DE3) Codon Plus, purified (Hi-Trap, Superdex 200); not shown: 6xHis-SUMO or thrombin-cleavable 6xHis, N-terminal, cleaved
For B4, the binding result (with yHsp70 (Ssa1) [1]; with yHsp90 (Hsp82); in assay [2]) was “binds” throughout.
